Assay results reported in article PMC2064791 (The Journal of Cell Biology, 2007).

T1: GST-tagged Dhh1(46–461) (S. cerevisiae, UniProt P39517 46-461)
T1 sequence (looked up): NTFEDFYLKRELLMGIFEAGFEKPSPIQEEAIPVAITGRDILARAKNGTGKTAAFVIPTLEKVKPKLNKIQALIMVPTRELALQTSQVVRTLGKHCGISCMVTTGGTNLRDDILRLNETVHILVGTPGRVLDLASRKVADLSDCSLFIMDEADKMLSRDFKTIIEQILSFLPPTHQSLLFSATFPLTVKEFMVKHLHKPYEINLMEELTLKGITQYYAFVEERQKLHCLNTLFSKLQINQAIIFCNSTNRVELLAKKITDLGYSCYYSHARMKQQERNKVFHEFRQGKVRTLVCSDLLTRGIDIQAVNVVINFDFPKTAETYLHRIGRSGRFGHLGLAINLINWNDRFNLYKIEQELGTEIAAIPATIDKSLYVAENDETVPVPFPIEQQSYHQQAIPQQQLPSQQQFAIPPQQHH

B1: His-Dcp2(1–300)-Flag (domain or fragment, S. cerevisiae, UniProt P53550 1-300, looked up)
chain: MSLPLRHALENVTSVDRILEDLLVRFIINCPNEDLSSVERELFHFEEASWFYTDFIKLMNPTLPSLKIKSFAQLIIKLCPLVWKWDIRVDEALQQFSKYKKSIPVRGAAIFNENLSKILLVQGTESDSWSFPRGKISKDENDIDCCIREVKEEIGFDLTDYIDDNQFIERNIQGKNYKIFLISGVSEVFNFKPQVRNEIDKIEWFDFKKISKTMYKSNIKYYLINSMMRPLSMWLRHQRQIKNEDQLKSYAEEQLKLLLGITKEEQIDPGRELLNMLHTAVQANSNNNAVSNGQVPSSQE
B2: His-Dcp2(102–300)-Flag (domain or fragment, S. cerevisiae, UniProt P53550 102-300, looked up)
chain: SIPVRGAAIFNENLSKILLVQGTESDSWSFPRGKISKDENDIDCCIREVKEEIGFDLTDYIDDNQFIERNIQGKNYKIFLISGVSEVFNFKPQVRNEIDKIEWFDFKKISKTMYKSNIKYYLINSMMRPLSMWLRHQRQIKNEDQLKSYAEEQLKLLLGITKEEQIDPGRELLNMLHTAVQANSNNNAVSNGQVPSSQE

Biological target: T1, GST-tagged Dhh1(46–461)
Assay: pull-down

Binder	binding result
B1	binds
B2	binds
